Holding throughout (conditions): both partners purified
One test deals with T1, DIP-β isoform C (Drosophila melanogaster).
T1 construct: Monomeric protein was used for SPR; also called DIP-β-C
Put plainly: SPR; Biacore T100, CM4 chip; DIPs immobilised by amine coupling (700-900 RU), monomeric Dpr analytes in 3-fold dilution series (0.012 to 9, 27 or 81 µM); 25 °C; 10 mM Tris-HCl pH 7.2, 150 mM NaCl, 1 mM EDTA, 1 mg/mL BSA, 0.01% Tween-20; equilibrium responses fit to a 1:1 model. On the technique in general: In SPR one partner is held on a chip, and binding of the other changes the refractive index at the surface.

The target in another test is T2, DIP-β isoform G (Drosophila melanogaster).
T2 construct: has an 11 amino acid deletion in the first Ig domain relative to DIP-β-C; Monomeric protein was used for SPR; also called DIP-β-G; not shown: His6, C-terminal, kept
T2 chain: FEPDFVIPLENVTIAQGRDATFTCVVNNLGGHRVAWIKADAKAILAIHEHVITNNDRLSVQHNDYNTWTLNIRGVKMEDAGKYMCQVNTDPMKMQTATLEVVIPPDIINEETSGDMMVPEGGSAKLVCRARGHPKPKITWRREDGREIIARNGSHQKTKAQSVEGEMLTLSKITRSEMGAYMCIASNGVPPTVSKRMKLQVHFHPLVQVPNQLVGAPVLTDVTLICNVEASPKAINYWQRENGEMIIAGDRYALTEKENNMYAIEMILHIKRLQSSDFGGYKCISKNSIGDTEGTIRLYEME
The description is as above.

Test [1] deals with T3, DIP-β-G recombinant protein for SPR (printed sequence) (Drosophila melanogaster).
T3 construct: DIP-β isoform G, Drosophila melanogaster; Monomeric protein was used for SPR; immobilised by amine coupling; also called Isoform G of DIP-β; not shown: His6, C-terminal, kept
T3 chain: T2 chain
Put plainly: SPR; Biacore T100, CM4 chip; DIPs immobilised by amine coupling (700-900 RU), monomeric Dpr analytes in 3-fold dilution series; 25 °C; 10 mM Tris-HCl pH 7.2, 150 mM NaCl, 1 mM EDTA, 1 mg/mL BSA, 0.01% Tween-20; equilibrium responses fit to a 1:1 model.

For orientation: Kd means the concentration at which binding is half-saturated.

T1 sequence (main, as listed by the source): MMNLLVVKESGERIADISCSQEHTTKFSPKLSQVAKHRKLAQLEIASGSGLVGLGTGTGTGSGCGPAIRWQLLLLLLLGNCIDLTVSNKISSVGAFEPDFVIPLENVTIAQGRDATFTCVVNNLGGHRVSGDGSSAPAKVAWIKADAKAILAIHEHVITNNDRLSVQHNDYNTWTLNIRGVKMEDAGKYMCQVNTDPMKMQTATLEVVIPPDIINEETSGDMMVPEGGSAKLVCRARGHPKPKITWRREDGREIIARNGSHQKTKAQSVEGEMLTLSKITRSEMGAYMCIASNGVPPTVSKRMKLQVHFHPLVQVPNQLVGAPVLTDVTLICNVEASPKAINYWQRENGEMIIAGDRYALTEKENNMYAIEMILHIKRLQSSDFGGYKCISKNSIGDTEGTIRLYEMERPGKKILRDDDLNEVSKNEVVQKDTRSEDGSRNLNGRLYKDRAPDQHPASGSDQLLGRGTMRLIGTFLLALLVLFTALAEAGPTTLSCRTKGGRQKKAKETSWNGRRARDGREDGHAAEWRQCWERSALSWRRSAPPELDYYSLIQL

B1: Dpr21 (natural protein)
chain: DRGPYFDTSATKNVTSLVGITGHLNCRIKNLGNKTVSWIRHRDLHLLTVSESTYTSDQRFTSIYNKQTGDWSLQIKFPQLRDSGIYECQVSTTPPVGYTMVFSVVEPITSILGGPEIYIDLGSTVNLTCVIKHLPDPPISVQWNHNNQEINYDSPRGGVSVITEKGDITTSYLLIQRASIADSGQYTCLPSNANSKSVNVHILKGD
Turning to B1, the Kd with DIP-β isoform C turned out to be 1.55 µM; with DIP-β isoform G it was 5.05 µM.

B2: Dpr15 (natural protein)
chain: TLKPPPTIDDYQTIISQAGTHAYLPCNVKQLVKKPISWLRMRDGHILTVDQTTFIADQRFQSVFSPNPERWSLQIKYVQLKDEGTYECQVSTEPKASAIVHLRIVEPKTELIGESTRHVKAGSQVKLRCIISQALEPPLFINWFYNQKQIYLHNRRGWRTEIERIDLPAEVPTTSTTTTTTTTTASTTTTTTSTTPATPSTTATGSTEGATSSETLNGLVTITRSYILDAISQNDVSELGAAAGVAVATETSTAQLLTEVEATSSTSGTSTGAGLLASTSAAYAAGAAAGITTAATGDSAATAATTSAWLTTMDAEAATTAATTTTTMLPSSSFIKQITTASLIIPAVVKLDSGNYTCSPSNSAPRTIVLHVLNGE
Turning to B2, the results for the Kd with DIP-β isoform C and in the test with DIP-β isoform G were 25.3 µM and 159 µM, respectively.

B3: Dpr6 (natural protein)
chain: WMEPYFDPSTPRNVTALMGKSAYLSCRVRNLANKTVSWIRHRDIHILTVGSYTYTSDQRFQATHHQDTEDWTLQIKWAQKRDAGMYECQISTQPVRSYFVRLNVVVPTATILGGPDLHVDKGSTINLTCTVKFSPEPPAYIFWYHHEEVINYDSSRGGVSVITEKGDVTTSFLLIQNADLADSGKYSCAPSNADVASVRVHVLNGE
Consider B3, for which the Kd in the test with DIP-β isoform C was 22 µM; with DIP-β isoform G, 15.2 µM.

B4: Dpr10-A recombinant protein for SPR (printed sequence) (domain or fragment, Drosophila melanogaster)
chain: WNEPYFDLTMPRNITSLVGKSAYLGCRVKHLGNKTVAWIRHRDLHILTVGTYTYTTDQRFQTSYHRDIDEWTLQIKWAQQRDAGVYECQISTQPVRSYSVNLNIVDLIDAETSDIMQQYYNDDAFYIAENRVYQSSNDEFAGMFGPIQTVAVPTATILGGPDLYVDKGSTINLTCIIKFSPEPPTHIFWYHQDKVLSEETSGGRLKFKTIKSEETKSILLIYDADLLHSGKYSCYPSNTEIASIRVHVLQGE
notes: Dpr10 isoform A, Drosophila melanogaster; Monomeric protein was used for SPR; analyte; not shown: His6, C-terminal, kept
Regarding B4, in test [1], the Kd was determined as 5.76 µM.

Source of the values: paper PMC12135937, “Members of the DIP and Dpr adhesion protein families use cis inhibition to shape neural development in Drosophila” (PLOS Biology, 2025).
